The values that follow come from patent US20070111265A1, “Ligands for mineralocorticoid receptor (MR) and methods for screening for or designing MR ligands” (Van Andel Research Institute, priority 2005, published 2007).

B1: SRC2-2 (peptide)
chain: KEKHKILHRLLQDSS
B2: SRC1-2 (peptide)
chain: TERHKILHRLLQESS
B3: SRC1-3 (peptide)
chain: SKDHQLLRYLLDKDE
B4: SRC3-3 (peptide)
chain: KENNALLRYLLDRDD
B5: SRC3-2 (peptide)
chain: QEKHRILHKLLQNGN

The assay addresses T1, human MR LBD (residues 727-984) containing a C808S mutation, 6xHis-GST fusion protein (human), P08235.
T1 chain: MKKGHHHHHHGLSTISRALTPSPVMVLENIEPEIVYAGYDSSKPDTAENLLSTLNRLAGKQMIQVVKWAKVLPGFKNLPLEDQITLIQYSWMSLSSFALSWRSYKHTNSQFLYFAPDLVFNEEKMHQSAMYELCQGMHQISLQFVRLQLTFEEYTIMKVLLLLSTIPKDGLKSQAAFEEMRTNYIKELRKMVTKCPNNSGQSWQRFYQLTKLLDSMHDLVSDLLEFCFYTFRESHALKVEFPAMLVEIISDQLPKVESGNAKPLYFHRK
Description: AlphaScreen peptide competition; corticosterone. Particulars: modification not given. (In general: In Alpha technology, singlet oxygen from a donor bead excites a nearby acceptor bead.)
In turn, B1 showed an IC50 of 2.2 µM.

B2 showed an IC50 of 1.4 µM. This IC50 is about 1.6-fold lower than that of the molecule before. To B3 belongs 1.6 µM; to B4, 1.4 µM; to B5, 4.6 µM.

In general, IC50 refers to the concentration at which inhibition is half-maximal.
